Laboratory results as given in article PMC6349918, “A five-residue motif for the design of domain swapping in proteins” (Nature Communications, 2019).
Where a chain is given by its changes, count along the chain named.

B1: L1MK-Ctd (MK-Ctd with QVVAG engineered into loop1) (domain or fragment)
chain: MVPSRFEDVRVVQVVAGWRVSVKIAETEEGEVVTVKAEFDECREIGEETGIPPREVKAMVEAAARVGGWVDLKEREIKVQEG
B2: L1MK-Ctd* (L1MK-Ctd with QVVAG mutated to QVNAG) (domain or fragment)
chain: B1 chain with V15N

Target: the molecule itself
Assay: SEC; MK-Ctd and its loop variants; Superdex 75 10/300 GL; 20 mM Tris-HCl, 500 mM GdnHCl, pH 8; monomer to dimer

Protein | stoichiometry N
B1 | 2
B2 | 2
